Assay results reported in publication doi:10.1101/2023.08.29.555277.

Legend:
[1] = target: F-actin (polymerised purified rabbit skeletal G-actin) (rabbit) (UniProt P68135); experiment: co-sedimentation
[2] = target: microtubules polymerised from porcine Tubulin (porcine) (UniProt P02550); experiment: co-sedimentation
Chain of UniProt P02550 (P02550 whole entry, looked up): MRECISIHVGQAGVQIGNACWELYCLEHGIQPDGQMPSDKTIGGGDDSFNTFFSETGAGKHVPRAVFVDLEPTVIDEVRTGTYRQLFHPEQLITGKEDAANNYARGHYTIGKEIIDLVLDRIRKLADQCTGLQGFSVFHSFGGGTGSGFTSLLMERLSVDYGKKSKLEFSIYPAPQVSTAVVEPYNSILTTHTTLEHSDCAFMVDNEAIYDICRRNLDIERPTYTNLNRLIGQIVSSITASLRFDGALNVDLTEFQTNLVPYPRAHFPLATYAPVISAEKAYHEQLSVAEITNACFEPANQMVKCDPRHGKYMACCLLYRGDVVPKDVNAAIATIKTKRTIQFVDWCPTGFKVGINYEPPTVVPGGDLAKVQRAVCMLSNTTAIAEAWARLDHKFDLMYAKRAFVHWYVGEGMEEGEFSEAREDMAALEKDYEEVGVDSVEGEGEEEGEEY

Substance | Pellet/Supernatant with F-actin [1] | further results
purified human full-length (FL) wild-type HTT (23 glutamines) (from UniProt P42858 1-3142) (natural protein) | 1.05 | Kd [1]: 357 nM
HTT fragment containing the Bridge to C_HEAT domains (B-C_HEAT; 1887 to 3144 a.a.) (domain or fragment) | 1.57 | 
HTT Bridge domain tagged with GST (GST-B: 1887-2098 a.a.) (domain or fragment) | 1.6 | 
endogenous HTT of mouse developing cortex, P42859 1-3119 |  | amount of HTT in the pellet with F-actin ([1]; remark: other sources report otherwise): 1.07
endogenous HTT of mouse developing cortex (from UniProt P42859 1-3119) (natural protein) |  | amount of HTT in the pellet with microtubules [2]: 1.18
